Two proteins from doi:10.1101/296517 (bioRxiv, 2018) can be followed below.

The series “Western blot of lysates” deals with the molecule itself. Description: Western blot of lysates. (Immunoblotting shows a protein as a band on a membrane.)
The series “Western blot” concerns the molecule itself. As to the kind of experiment: Western blot.

Where “and” joins values, the source holds several entries; their conditions need not be identical. Identical values can stand only once.

B1: GRASP65 (natural protein)
chain: not shown
Regarding B1, the “stoichiometry N” value in “Western blot of lysates” is 2 and 4.

B2: Rab6a GTPase (natural protein, human (endogenous in LNCaP), UniProt P20340 1-208, looked up)
chain: MSTGGDFGNPLRKFKLVFLGEQSVGKTSLITRFMYDSFDNTYQATIGIDFLSKTMYLEDRTVRLQLWDTAGQERFRSLIPSYIRDSTVAVVVYDITNVNSFQQTTKWIDDVRTERGSDVIIMLVGNKTDLADKRQVSIEEGERKAKELNVMFIETSAKAGYNVKQLFRRVAAALPGMESTQDRSREDMIDIKLEKPQEQPVSEGGCSC
As for B2, the “stoichiometry N” value in the series “Western blot” worked out at 2.

One may read the stoichiometry N as a count of units in the complex or per binding partner.
